Data published in the supplement of paper PMC10567573.

B1: UBE2R2 (parent)
chain: DPQSGELPSERWNPTQNVRTILLS

Variants of: B1
Assay: protein stability index of a GFP-peptide fusion (GPS, HEK-293T) (PSI 1-6); higher = more stable
Conditions: c terminus: a fixed tail appended
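Further: lentivirally expressed fusions sorted by FACS into six bins by GFP to DsRed ratio, PSI derived from sequencing read proportions per bin multiplied by bin number.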

Variant	protein stability index
DPQSGELPSEDWNPTQNVRTILLS [R11D]	3.88
DPQSGELPSEHWNPTQNVRTILLS [R11H]	3.3
DPQSGELPSEAWNPTQNVRTILLS [R11A]	3.77
DPQSGELPSEIWNPTQNVRTILLS [R11I]	2.77
DPQSGELPSEQWNPTQNVRTILLS [R11Q]	4.04
DPQSGELPSEKWNPTQNVRTILLS [R11K]	3.5
DPQSGELPSECWNPTQNVRTILLS [R11C]	3.76
DPQSGELPSEEWNPTQNVRTILLS [R11E]	4.44
DPQSGELPSEMWNPTQNVRTILLS [R11M]	3.22
DPQSGELPSEGWNPTQNVRTILLS [R11G]	4.23
DPQSGELPSENWNPTQNVRTILLS [R11N]	3.48
DPQSGELPSELWNPTQNVRTILLS [R11L]	3.24
DPQSGELPSEPWNPTQNVRTILLS [R11P]	3.71
DPQSGELPSEFWNPTQNVRTILLS [R11F]	2.82
DPQSGECPSERWNPTQNVRTILLS [L7C]	3.29
DPQSGETPSERWNPTQNVRTILLS [L7T]	4.12
DPQSGEKPSERWNPTQNVRTILLS [L7K]	3.81
DPQSGENPSERWNPTQNVRTILLS [L7N]	4.11
DPQSGEAPSERWNPTQNVRTILLS [L7A]	4.25
DPQSGEVPSERWNPTQNVRTILLS [L7V]	3.19
DPQSGEMPSERWNPTQNVRTILLS [L7M]	3.71
DPQSGEYPSERWNPTQNVRTILLS [L7Y]	3.06
DPQSGEHPSERWNPTQNVRTILLS [L7H]	3.67
DPQSGESPSERWNPTQNVRTILLS [L7S]	3.79

Variant	protein stability index
DPQSGEEPSERWNPTQNVRTILLS [L7E]	4.02
DPQSGEGPSERWNPTQNVRTILLS [L7G]	3.69
DPQSGEIPSERWNPTQNVRTILLS [L7I]	3.35
DPQSGEFPSERWNPTQNVRTILLS [L7F]	3.2
DPQSGEWPSERWNPTQNVRTILLS [L7W]	2.62
DPQSGEDPSERWNPTQNVRTILLS [L7D]	4.51
DPQSGEPPSERWNPTQNVRTILLS [L7P]	4.68
DPQSGERPSERWNPTQNVRTILLS [L7R]	3.81
DPQSGEQPSERWNPTQNVRTILLS [L7Q]	4.32
DPQSGELPHERWNPTQNVRTILLS [S9H]	3.47
DPQSGELPWERWNPTQNVRTILLS [S9W]	2.58
DPQSGELPDERWNPTQNVRTILLS [S9D]	3.86
DPQSGELPKERWNPTQNVRTILLS [S9K]	3.94
DPQSGELPYERWNPTQNVRTILLS [S9Y]	2.92
DPQSGELPPERWNPTQNVRTILLS [S9P]	3.43
DPQSGELPVERWNPTQNVRTILLS [S9V]	3.81
DPQSGELPIERWNPTQNVRTILLS [S9I]	4.09
DPQSGELPQERWNPTQNVRTILLS [S9Q]	3.35
DPQSGELPNERWNPTQNVRTILLS [S9N]	3.8
DPQSGELPLERWNPTQNVRTILLS [S9L]	3.76
DPQSGELPAERWNPTQNVRTILLS [S9A]	4.37
DPQSGELPGERWNPTQNVRTILLS [S9G]	3.27
DPQSGELPMERWNPTQNVRTILLS [S9M]	3.87
DPQSGELPFERWNPTQNVRTILLS [S9F]	2.4

Variant	protein stability index
DPQSGELPEERWNPTQNVRTILLS [S9E]	3.95
DPQSGELPTERWNPTQNVRTILLS [S9T]	3.98
DPQSGELPRERWNPTQNVRTILLS [S9R]	3.43
DPQSGELPCERWNPTQNVRTILLS [S9C]	3.9
DPQSGVLPSERWNPTQNVRTILLS [E6V]	3.17
DPQSGTLPSERWNPTQNVRTILLS [E6T]	3.37
DPQSGYLPSERWNPTQNVRTILLS [E6Y]	2.95
DPQSGSLPSERWNPTQNVRTILLS [E6S]	3.1
DPQSGWLPSERWNPTQNVRTILLS [E6W]	2.89
DPQSGELPSMRWNPTQNVRTILLS [E10M]	3.09
DPQSGELPSHRWNPTQNVRTILLS [E10H]	3.14
DPQSGELPSLRWNPTQNVRTILLS [E10L]	2.98
DPQSGELPSVRWNPTQNVRTILLS [E10V]	2.6
DPQSGELPSWRWNPTQNVRTILLS [E10W]	2.39
DPQSGELPSFRWNPTQNVRTILLS [E10F]	2.45
DPQSGELPSKRWNPTQNVRTILLS [E10K]	3.05
DPQSGELPSIRWNPTQNVRTILLS [E10I]	2.55
DPQSGELPSPRWNPTQNVRTILLS [E10P]	3.51
DPQSGELPSYRWNPTQNVRTILLS [E10Y]	2.71
DPQSGELPSRRWNPTQNVRTILLS [E10R]	3.17
DPQSGELPSGRWNPTQNVRTILLS [E10G]	2.84
DPQSGELPSDRWNPTQNVRTILLS [E10D]	3.43
DPQSGELPSQRWNPTQNVRTILLS [E10Q]	3.5
DPQSGELPSARWNPTQNVRTILLS [E10A]	2.98

Variant	protein stability index
DPQSGELPSTRWNPTQNVRTILLS [E10T]	3.48
DPQSGELPSCRWNPTQNVRTILLS [E10C]	2.81
DPQSGELPSSRWNPTQNVRTILLS [E10S]	2.95
DPQSGELPSNRWNPTQNVRTILLS [E10N]	3.35
DPQSGELCSERWNPTQNVRTILLS [P8C]	4.2
DPQSGELHSERWNPTQNVRTILLS [P8H]	3.59
DPQSGELSSERWNPTQNVRTILLS [P8S]	3.48
DPQSGELDSERWNPTQNVRTILLS [P8D]	3.68
DPQSGELASERWNPTQNVRTILLS [P8A]	4.13
DPQSGELWSERWNPTQNVRTILLS [P8W]	3.05
DPQSGELFSERWNPTQNVRTILLS [P8F]	3.27
DPQSGELMSERWNPTQNVRTILLS [P8M]	3.66
DPQSGELKSERWNPTQNVRTILLS [P8K]	3.58
DPQSGELESERWNPTQNVRTILLS [P8E]	3.82
DPQSGELRSERWNPTQNVRTILLS [P8R]	3.37
DPQSGELISERWNPTQNVRTILLS [P8I]	2.69
DPQSGELQSERWNPTQNVRTILLS [P8Q]	3.57
DPQSGELTSERWNPTQNVRTILLS [P8T]	3.06
DPQSGELVSERWNPTQNVRTILLS [P8V]	3.33
DPQSGELYSERWNPTQNVRTILLS [P8Y]	3.34
DPQSGELLSERWNPTQNVRTILLS [P8L]	3.55
DPQSGELNSERWNPTQNVRTILLS [P8N]	3.53
